Laboratory results from PMC3570589.

Key:
Experiment in all cases: ITC
[1] = molecular target: H3_((28–43))K36me3 peptide (UniProt P68431)
[2] = molecular target: H3_((28–43))K36me1 peptide (UniProt P68431)
[3] = molecular target: H3_((28–43))K36me2 peptide (UniProt P68431)
[4] = molecular target: H3_((27–46))K36me3 peptide (UniProt P68431)

Chain of PHF1 Tudor domain protein, wild-type (ITC and silver-stained peptide pull-downs) (O43189 29-86): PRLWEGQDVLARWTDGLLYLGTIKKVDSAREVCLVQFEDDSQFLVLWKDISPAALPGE

Row | Ka [1] [M⁻¹] | Kd [1] [µM] | dH [1] [kcal/mol] | dH [2] [kcal/mol] | stoichiometry N [2] | Ka [3] [M⁻¹] | Kd [3] [µM] | dH [3] [kcal/mol] | stoichiometry N [3] | stoichiometry N [1] | Kd [4] [µM] | Substance
1 | 43900 | 22.8 | -6.47 | – | – | – | – | – | – | – | – | PHF1 Tudor domain protein, E66K (from UniProt O43189-1 29-86) (domain or fragment)
2 | 238000 | 4.2 | -5.63 | -0.817 | 0.7 | 51800 | 19.3 | -3.99 | 0.94 | 0.79 | – | PHF1 Tudor domain protein, wild-type (ITC and silver-stained peptide pull-downs) (from UniProt O43189-1 29-86) (domain or fragment)
3 | – | – | – | – | – | – | – | – | – | – | 5 to 7 | PHF19 Tudor domain protein, wild-type (from UniProt Q5T6S3 40-93) (domain or fragment)
4 | 33200 | 30.1 | -1.35 | – | – | – | – | – | – | 0.68 | – | PHF1 Tudor domain protein, W41A (from UniProt O43189-1 29-86) (domain or fragment)
